B1: 203H9 (VHH)
VHH: EVQLVESGGGLVQPGGSLRLSCTGSGFTFSSYWMDWVRQTPGKDLEYVSGISPSGGNTDYADSVKGRFTISRDNAKNTLYLQMNSLQPEDTALYYCRRSLTLTDSPDLRSQGTQVTVSS
B2: RSVNC41 (VHH)
VHH: EVQLVESGGGLVQAGGSLSISCAASGGSLSNYVLGWFRQAPGKEREFVAAINWRGDITIGPPNVEGRFTISRDNAKNTGYLQMNSLAPDDTAVYYCGAGTPLNPGAYIYDWSYDYWGRGTQVTVSS

Key:
[1] = molecular target: H5 Hemagglutinin (HA, A/Vietnam/1203/2004 (H5N1), Protein Sciences Cat. No. 3006) (influenza A virus A/Vietnam/1203/2004 (H5N1)); assay: SPR (Biacore), H5 coupled on CM5, 1:1 Langmuir model
[2] = substrate: F protein of RSV A-2 (human respiratory syncytial virus, strain A-2) (UniProt P03420); assay: cell-based or functional assay
[3] = substrate: F protein of RSV Long (RSV LONG M-2) (human respiratory syncytial virus, strain Long) (UniProt P12568); assay: cell-based or functional assay
[4] = substrate: F protein of RSV B-1 (human respiratory syncytial virus, strain B-1) (UniProt P13843); assay: cell-based or functional assay

Row | Binder | Kd [1] [µM] | RSV neutralization IC50 (nM) (n = 2), A-2 [2] | RSV neutralization IC50 (nM) (n = 2), Long [3] | RSV neutralization IC50 (nM) (n = 2), B1 [4]
1 | B1 | 0.0155 |  |  | 
2 | B2 |  | 26 | 58 | 4000

Reference: patent US20200123233A1
